In the Human Domainome abundance scans (Beltran et al. 2025):
± gives the uncertainty stated by the source.

B1: Telomeric repeat-binding factor 2, residues 489 to 542; numbered along this chain, Q15554 (parent)
chain: KQKWTVEESEWVKAGVQKYGEGNWAAISKNYPFVNRTAVMIKDRWRTMKRLGMN

Variants of: B1
Assay: abundance fitness (aPCA) (normalised: wild type 0, dead -1); higher = more abundant; growth selection in yeast, the domain comes from the species named
Conditions: Homo sapiens

Row | Variant | abundance fitness
1 | A25G | -0.13 ± 0.066
2 | A25P | -0.663 ± 0.27
3 | A25I | -0.217 ± 0.39
4 | A25C | -0.091 ± 0.15
5 | A25K | -0.448 ± 0.12
6 | A25Q | 0.08 ± 0.1
7 | A25R | -0.373 ± 0.12
8 | A25Y | -0.235 ± 0.1
9 | A14H | -0.209 ± 0.24
10 | A14P | -0.306 ± 0.24
11 | A14S | 0.084 ± 0.086
12 | A14Q | -0.189 ± 0.17
13 | A14W | -0.382 ± 0.18
14 | A14F | -0.4 ± 0.21
15 | A14D | -0.041 ± 0.087
16 | A14E | -0.116 ± 0.14
17 | A14G | -0.236 ± 0.053
18 | A14Y | -0.217 ± 0.29
19 | A14L | -0.051 ± 0.061
20 | A14N | -0.276 ± 0.07
21 | A14R | -0.002 ± 0.09

Row | Variant | abundance fitness
22 | N23L | -0.56 ± 0.14
23 | N23Y | -0.539 ± 0.28
24 | N23E | -0.801 ± 0.36
25 | N23W | -0.39 ± 0.26
26 | N23S | -0.238 ± 0.086
27 | N23C | -0.417 ± 0.36
28 | N23G | -0.61 ± 0.14
29 | N23Q | 0.057 ± 0.41
30 | N23K | 0.133 ± 0.11
31 | N23V | -0.27 ± 0.092
32 | N23D | -0.527 ± 0.26
33 | N23P | -0.773 ± 0.33
34 | N23A | -0.298 ± 0.11
35 | N23M | -0.385 ± 0.39
36 | N23T | -0.478 ± 0.18
37 | N23I | -0.354 ± 0.23
38 | Y19A | -0.421 ± 0.066
39 | Y19S | -0.375 ± 0.071
40 | Y19N | -0.242 ± 0.34
41 | Y19P | -0.083 ± 0.16
42 | Y19L | -0.51 ± 0.088

Row | Variant | abundance fitness
43 | Y19G | -0.912 ± 0.22
44 | Y19W | -0.557 ± 0.085
45 | Y19I | -0.051 ± 0.34
46 | Y19R | -0.162 ± 0.093
47 | Y19M | -0.464 ± 0.26
48 | Y19K | -0.004 ± 0.13
49 | Y19H | -0.28 ± 0.079
50 | Y19T | -0.395 ± 0.1
51 | Y19V | -1.04 ± 0.29
52 | Y19C | -0.528 ± 0.18
53 | Y19Q | -0.225 ± 0.099
54 | Y19E | -0.321 ± 0.16
55 | Q17P | -0.63 ± 0.26
56 | Q17R | -0.2 ± 0.082
57 | Q17A | -0.031 ± 0.088
58 | Q17N | -0.295 ± 0.42
59 | Q17W | -0.376 ± 0.1
60 | Q17S | -0.087 ± 0.079
61 | Q17T | 0.003 ± 0.1
62 | Q17K | -0.143 ± 0.11
63 | Q17E | -0.441 ± 0.067

Row | Variant | abundance fitness
64 | Q17D | -0.273 ± 0.16
65 | Q17H | -0.328 ± 0.29
66 | Q17V | -0.244 ± 0.085
67 | Q17F | -0.469 ± 0.14
68 | Q17M | -0.531 ± 0.21
69 | Q17C | 0.016 ± 0.12
70 | Q17Y | -0.136 ± 0.13
71 | Q17G | -0.108 ± 0.074
72 | Q17L | -0.014 ± 0.053
73 | Q17I | -0.066 ± 0.15
74 | I27M | -0.561 ± 0.22
75 | I27E | -0.938 ± 0.26
76 | I27K | -0.757 ± 0.09
77 | I27L | -0.457 ± 0.1
78 | I27A | -0.862 ± 0.24
79 | I27P | -0.87 ± 0.41
80 | I27F | -0.606 ± 0.35
81 | I27V | -0.545 ± 0.13
82 | I27G | -0.901 ± 0.11
83 | I27R | -0.788 ± 0.055
84 | I27S | -1.12 ± 0.23
